Experimental data taken from patent US20040146931.

Test system: Gal11P-P53zf zinc finger (artificial)
Experiment: cell_activity
Details: EGFP over control, in vivo site selection

| Sequence | binding [fold] | binding (matches the consensus) [fold] |
| --- | --- | --- |
| CGGGACACGGG (double strand) [in vivo selected P53zf site 3] | > 2 |  |
| CGGGACACGTG (double strand) [in vivo selected P53zf site 1] |  | > 2 |
| CGGGACATGTG (double strand) [in vivo selected P53zf site 2] | > 2 |  |
